The RNAGym collection of RNA variant scans (doi:10.1073/pnas.2313332121)

B1: TPR t1 (parent)
chain: GACCAAUCUGCCCUCAGAGCUCGAGAACAUCUUCGGAUGCAGAGGAGGCAGGCUUCGGUGGCGCGAUAGCGCCAACGUCCUCAACCUCCAAUGCAUCCCACCACAUGAUGAUGCCUGAAGAGCCUUGGUUUUUUG

Variants of: B1
Test: polymerase ribozyme fitness, log enrichment relative to wild type (log ratio); higher = more active; in vitro selection for triplet polymerase activity
In short: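 For each subunit of a heterodimeric triplet polymerase ribozyme, a mutant library was built by PCR and transcribed, then taken through a single in vitro selection round in triplicate. Selection involved annealing to a biotinylated primer, the partner subunit and triplets, incubation frozen at −7 °C, gel excision of extended constructs, capture on streptavidin beads and RT-PCR. Genotypes were retained after Illumina sequencing of inputs and outputs only with ≥10 input reads and ≥1 read in each output. Fitness is defined as the logarithm of a genotype's enrichment relative to wild-type enrichment, using inverse-variance-weighted averages across replicates, with the logarithm taken to base 2.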

Variant | polymerase ribozyme fitness (log ratio)
C13U A83C U112C | 1.79
C12U C56A G69A | -2.89
C12U G42C C62A G120U U126C | -1.07
C13G G113A | -2.45
C12U G48U | -0.505
C12U U14A C40A C72U A105C | -4.37
C13U A18C A37C C49U A121C | -2.39
C13G U106C | -2.21
C12U U133G | -0.256
C13U C28G G63U C98U C115U | -5.89
C13G C86G A90C A95G | -4.51
C13A G23A A66G G69A U78C C85U A90U U96G C123U | -6.29
C12U C70U C80A C97U A121G U133A | -3.61
C13A G39U C56A | -2.45
C13U C40U A43G G52U G58C A91C | -2.35
C13U C56U G60C C73A | -0.677
C13G U112A G113A | -2.13
C13A C94A C124A | 0.414
C13U C15G G57U G93A G117A | -1.62
C12U U55C G71A A90G G113U | -2.97
C13G A83U A95C G110A G120U | -3.42
C13U C49U | -0.549
C13G C28G G42C | -6.24
C12U G45U | -0.901

Variant | polymerase ribozyme fitness (log ratio)
C12U G45A | -1.24
C13U C15U A37U A41U U59G | -1.74
C13A G57C C85G C123U | -1.45
C13G A37U U38C C62U | -4.23
C12U C99A | -3.9
C12U C56U G69U U112G A119U | -2.27
C13A A16U C101G | -4.02
C13A A16G G61A C79G G113C | -5.27
C13G C114U | -2.83
C12U G61U U109G G120U | -4.29
C12U C31G A37G G45U A50C G51U C102A G117U | -7.15
C12U U112C | 1.26
C13A G42A G77U U131C | -3.87
C13A C70A | -3.18
C13A A46G U125G | -3.19
C12U C53G A90C | -1.61
C13A G23U G61C C88U C98G U112A G113A | -5.88
C12U C73A C104A | -0.305
C13G A16C C85G A121C | -3.75
C13G C62G G117C | -8.19
C12U G65U | -4.93
C13A A100U | -2.85
C13G U81C | -1.96
C13G G63U C102A | -5.61

Variant | polymerase ribozyme fitness (log ratio)
C13G A41C C97A C115A G128A | -7.05
C12U C89U A100C U133G | -1.42
C12U G63U C70A C82A C115A G128A | -1.07
C12U C94A | -0.148
C12U C94U | -0.204
C13G A37G A41C A121U | -0.739
C13U C56G | 0.205
C13G A108G | -3.4
C12U G44U G47C C89A A90C U116A U131G | -3.02
C13G C82A C102A U130G | -4.93
C13G A43U C101U | -3.57
C13G U32C C85G | -4
C13U A43C A50U C73U C86U U96G A108U G117U | -6.8
C13A C53A C115U A119U | 0.949
C12U G42U C70U U81C G120U | -1.9
C12U U92G U96A | -2.63
C13G U59A A91U C115U | -4.42
C12U U14A C40A A105C | -3.92
C13U A26G G58A | -3.1
C13U C20G G63C | -4.8
C12U G71C C82G | -1.53
C13A C20A | -3.84
C13G G42U | -2.84
C12U C13U C79G | -1.13

Variant | polymerase ribozyme fitness (log ratio)
C13A C40A | -2.4
C13G U132A | -1.5
C13A C104U A118C C124A | -0.374
C13U C62G U130C G135U | -1.67
C13U C34A U54A U78C U112A G122C | -3.05
C12U G71A C94U | -1.26
C13A A111U | -4.17
C13A A111C | -1.39
C13A C76G | -2.51
C13G G52U A68G A111C C124U U133C | -4.14
C12U G60C U109G | -4
C12U C56U | 0.248
C13A G36A C72U A121C G127U | -0.199
C12U U130G | 0.00659
C13G A119U | 0.114
C12U C53U C80G C82U A90G | -2.24
C13A C62A G120U | -1.17
C13G C56A | -1.9
C13A C124U U132A | -1.61
C12U G77C | 0.201
C12U G61U A105U | -1.42
C13A G61A A66U A121U U129G | -0.637
C13G G60U G93A C104U U129A | -4.29
C12U C80G G128C U130C | -4.44

Variant | polymerase ribozyme fitness (log ratio)
C13G C124G | 0.288
C13G C124A | 1.06
C12U G19U A90C | -2.37
C12U C22G G45A G71A C94U C99U | -4.76
C13A A75U U125A | -2.12
C13U A37G G47A G57C G71C | -1.61
C13A G44C C56U C124A | 0.969
C13G G47A U54C | -2.54
C13G G48U C53A | -2.34
C13U C22A A26C C56G G122A | -4.98
C13U C28G C53G U78G C88A U106A G110A A111G | -1.49
C13G C40G C123G | -0.377
C12U G47A C79U U87C | 0.112
C13U C20A U38G | -4.15
C12U C49A A50C A95C | -1.09
C13G G47U | -3.12
C13U C34A C70A U106A C114A | -6.64
C13A C62G | -2.67
C12U G113A U125A | -0.67
C13G G45U C82U G113A | -2.94
C12U G44U G110A | -2.1
C12U G19C C56U U81G C104A G117C | -5.9
C12U C40G | -0.0831
C12U U87C | 1.04

Variant | polymerase ribozyme fitness (log ratio)
C12U G23A U130C | -5.34
C13G C53G G63A | -2.67
C13G G69A U132A | -3.7
C13U C56G U59G A95C | -2.3
C13A C70G C123A | -2.2
C12U G47A | -0.468
C13G C40A G63C G117U U133G | -6.59
C13G C88A U130G | -3.24
C13U A29C G61U | -2.08
C12U G61U C88A | -0.482
C12U C62U C70G G93A | -5.44
C12U G35A C62U G117A | -6.59
C12U C34A U132A | -1.35
C13G G63C C70A C124A | 0.905
C13A C72U | -1.96
C13A C28G C49A A75U A103G G107U U112C | -6.59
C13G G71C A84G C104A U109G G117U C124A U130G | -6.92
C12U G71C | -0.564
C13A U112A | -0.401
C13G G52U C70U C123A | -1.13
C13A A43C G44A C72U C76U U126A | -5.92
C12U C15U G17A C64U A83C C85A G117U | -2.73
C13U C34A G71C A121U | -2.27
C12U A121C | 2.05

Variant | polymerase ribozyme fitness (log ratio)
C12U C70U U129C | -0.46
C13A C72G C94A C124A | 0.278
C13G A26U G47A C82U | -5.11
C13G C73U U78C A121C | -0.0893
C13A G60U A91U G120A | -2.31
C13A C86A | -3.09
C13G U21A G52C G61U A91C G120C | -2.36
C13G G17U C64U G93C | -4.19
C13A G120A | -0.19
C12U G45U G77C | -0.677
C13A A29G C53U U106C | -5.28
C12U C49G | -0.764
C13A G61A C82U C124U | -0.178
C12U C123U | 1.71
C13U C40A C82A C89A | -2.38
C13U A29C C56U | -2.25
C12U C49G C97A A111U | -5.43
C12U C97U | -0.793
C13A G110C | -4.52
C12U G47C G69U G107A | -4.81
C12U U21A C62G C104U | -2.05
C12U C49G G113U C114A U129A | -4.7
C13G A37G G48C | -3.17
